Patent US20090130123A1 (published 2009)

T1: WNV E protein DIII displayed on yeast (Saccharomyces cerevisiae; West Nile …, UniProt Q9Q6P4 586-705)
T1 construct: domain: DIII; also called WNV DIII
T1 sequence: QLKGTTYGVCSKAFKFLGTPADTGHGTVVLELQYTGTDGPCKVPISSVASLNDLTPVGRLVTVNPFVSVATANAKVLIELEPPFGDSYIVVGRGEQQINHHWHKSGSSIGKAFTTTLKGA

T2: Recombinant WNV-E protein ectodomain (West Nile virus, UniProt Q9Q6P4 291-700)
T2 construct: extracellular domain; also called rWNV-E; WNE
T2 sequence (looked up): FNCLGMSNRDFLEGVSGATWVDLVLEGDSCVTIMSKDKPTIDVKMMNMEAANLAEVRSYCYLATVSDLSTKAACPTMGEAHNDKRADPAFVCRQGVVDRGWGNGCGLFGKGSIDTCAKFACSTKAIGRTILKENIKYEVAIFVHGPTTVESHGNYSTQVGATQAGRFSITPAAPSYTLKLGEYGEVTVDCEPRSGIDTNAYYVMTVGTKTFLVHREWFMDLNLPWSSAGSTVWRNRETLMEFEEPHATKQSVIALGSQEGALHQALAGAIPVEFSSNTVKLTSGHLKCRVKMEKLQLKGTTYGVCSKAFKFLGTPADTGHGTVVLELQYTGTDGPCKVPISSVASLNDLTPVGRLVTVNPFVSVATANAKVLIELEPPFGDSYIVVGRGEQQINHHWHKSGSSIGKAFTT

B1: scFv-Fc 11 (Fc fusion)
chain: QVQLVQSGAEVKKPGASVKVSCKASGYTFSGYSTHWLRQVPGQGLEWIGWDNPSSGDTTYAENFRGRVTLTRDTSITTDYLEVRGLRSDDTAVYYCARGGDDYSFDHWGQGTLVTVSSGGGGSGGGGSGGGGSSSELTQDPAVSVALGQTVRITCRGDSLRSYYASWYQQKPGQAPVLVIYGENNRPSGIPDRFSGSSSGDTASLTITGAQAEDEADYYCNSRDSSDHLLLFGGGTKL
notes: also called 11 scFv-Fc
B2: 79 scFv-Fc (Fc fusion)
chain: QVQLVQSGAEVKKPGSSVKVSCKASGGTFSSYAISWVRQAPGQGLEWMGWMNSNTGDTGYAQKFQGRVTMTRNTSTSTAYMELSSLRSEDTAVYYCAKISNYHYYAMDVWGQGTLVTVSSGGGGSGGGGSGGGGSLPVLTQPPSASGTSGQTVTISCSGGSSNIGSHLVTWYQQFPGTAPKVLIHTNDQRPSGVPDRISGSKSGTSASLAISGLQSDDEGDYYCAAWDDSLNGYVFGTGTKVTVLG
notes: also called scFv-Fc 79; antibody 79 (scFv-Fc)
B3: scFv 85 (scFv, not shown: small tags and cut ends)
scFv: MAQVQLVQSGAEVKKPGASVKVSCKASGYTFSGYSTHWLRQVPGQGLEWIGWDNPSSGDTTYAENFRGRVTLTRDTSITTDYLEVRGLRSDDTAVYYCARGGDDYSFDHWGQGTLVTVSSGGGGSGGGGSGGGGSSSELTQDPAVSVALGQTVTITCQGGGLRNYYASWYQQKPGQAPVLLVYGRDNRPSGIPDRFSGSSSGNTASLTITGAQAEDEADYYCNSRDSSGNHLVFGGGTKLTVLGQPKATPSAAAEQKLISEEDL
notes: also called 85 scFv; antibody 85
B4: scFv 69 (scFv, not shown: small tags and cut ends)
scFv: MAQVQLVQSGAEVKEPGSSVKVSCKASGGTFSNYPISWVRQAPGQGLEWMGGIIPITNSPGYAQKFQGRVTISADESTGTVYMELSSLRSEDTAIYYCAKDPNRYESGVLHYWHGLDVWGQGTTVTVSSGGGGSGGGGSGGGGSLPVLTQPPSASGTPGQTVTLSCSGSSSNIGSNTVNWYQQLPGTAPKLLIYSNNQRPSGVPDRFSASKSGTSASLAITGLQAEDEADYFCAAWDDSLVYVFGTGTKVTVLGQPKAAPSAAAEQKLISEEDL
notes: also called 69 scFv; antibody 69
B5: 84 scFv-Fc (Fc fusion)
chain: QVQLVQSGAEVKKPGASVKVSCKASGYTFSGYSTHWLRQVPGQGLEWIGWDNPSSGDTTYAENFRGRVTLTRDTSITTDYLEVRGLRSDDTAVYYCARGGDDYSFDHWGQGTLVTVSSGGGGSGGGGSGGGGSQSVLTQPPSVSVAPGKTARIPCGGNNSGTKSVHWYQQKPGQAPVLVIYDDRVRPSGIPERFSGSNSGDTATLTISRVAAGDEADYYCQVSDGSGDPPTWVFGGGTRLTVL
notes: also called scFv-Fc 84
B6: scFv 71 (scFv)
scFv: MAQVQLVQSGAEVKKPGASVKVSCKASGYTFSGYSTHWLRQVPGQGLEWIGWDNPSSGDTTYAENFRGRVTLTRDTSITTDYLEVRGLRSDDTAVYYCARGGDDYSFDHWGQGTLVTVSSGGGGSGGGGSGGGGSSYELTQPPSASGTTGQRVTISCSGSSSNIGSNTVNWYQQLPGTAPKLLIYSNNQRPSGVPDRLSGSKSGTSASLAISGLQSEDEADYYCAAWDARLTGPLFGGGTKLSVLRQPKAAPSAAAEQKLISEEDL
notes: also called 71 scFv; antibody 71
B7: scFv 73 (scFv)
scFv: MAQVQLVQSGAEVKKPGASVKVSCKASGYTFSGYSTHWLRQVPGQGLEWIGWDNPSSGDTTYAENFRGRVTLTRDTSITTDYLEVRGLRSDDTAVYYCARGGDDYSFDHWGQGTLVTVSSGGGGSGGGGSGGGGSSYELTQPPSASGTPGQRVTISCSGSSSNIGSNTVNWYQQLPGTAPKLLIYSNNQRPSGVPDRFSGSKSGTSASLAISGLQSEDEADYYCAAWDARLTGPLFGGGTKLSVLRQPKAAPSAAAEQKLISEEDL
notes: also called 73 scFv; antibody 73
B8: scFv 15 (scFv)
scFv: MAQVQLVQSGAEVKKPGASVKVSCKASGYTFSGYSTHWLRQVPGQGLEWIGWDNPSSGDTTYAENFRGRVTLTRDTSITTDYLEVRGLRSDDTAVYYCARGGDDYSFDHWGQGTLVTVSSGGGGSGGGGSGGGGSQSALTQPASVSGSPGQSITISCTGTNSDVGIYNLVSWYQQHPGKAPKLMIYDVSNRPSGVSSRFSGSNSGNTATLTISGLQAEDEADYYCSAHAGDNTQFGGGTKLTVLSQPKAAPSAAAEQKLISEEDL
notes: also called 15 scFv; antibody 15
B9: scFv-Fc 71 (Fc fusion)
chain: QVQLVQSGAEVKKPGASVKVSCKASGYTFSGYSTHWLRQVPGQGLEWIGWDNPSSGDTTYAENFRGRVTLTRDTSITTDYLEVRGLRSDDTAVYYCARGGDDYSFDHWGQGTLVTVSSGGGGSGGGGSGGGGSSYELTQPPSASGTTGQRVTISCSGSSSNIGSNTVNWYQQLPGTAPKLLIYSNNQRPSGVPDRLSGSKSGTSASLAISGLQSEDEADYYCAAWDARLTGPLFGGGTKLSVLR
notes: also called 71 scFv-Fc
B10: scFv-Fc 73 (Fc fusion)
chain: QVQLVQSGAEVKKPGASVKVSCKASGYTFSGYSTHWLRQVPGQGLEWIGWDNPSSGDTTYAENFRGRVTLTRDTSITTDYLEVRGLRSDDTAVYYCARGGDDYSFDHWGQGTLVTVSSGGGGSGGGGSGGGGSSYELTQPPSASGTPGQRVTISCSGSSSNIGSNTVNWYQQLPGTAPKLLIYSNNQRPSGVPDRFSGSKSGTSASLAISGLQSEDEADYYCAAWDARLTGPLFGGGTKLSVLR
notes: also called 73 scFv-Fc
B11: scFv 11 (scFv)
scFv: MAQVQLVQSGAEVKKPGASVKVSCKASGYTFSGYSTHWLRQVPGQGLEWIGWDNPSSGDTTYAENFRGRVTLTRDTSITTDYLEVRGLRSDDTAVYYCARGGDDYSFDHWGQGTLVTVSSGGGGSGGGGSGGGGSSSELTQDPAVSVALGQTVRITCRGDSLRSYYASWYQQKPGQAPVLVIYGENNRPSGIPDRFSGSSSGDTASLTITGAQAEDEADYYCNSRDSSDHLLLFGGGTKLTVLGQPKATPSAAAEQKLISEEDL
notes: also called 11 scFv; antibody 11
B12: scFv-Fc 15 (Fc fusion)
chain: QVQLVQSGAEVKKPGASVKVSCKASGYTFSGYSTHWLRQVPGQGLEWIGWDNPSSGDTTYAENFRGRVTLTRDTSITTDYLEVRGLRSDDTAVYYCARGGDDYSFDHWGQGTLVTVSSGGGGSGGGGSGGGGSQSALTQPASVSGSPGQSITISCTGTNSDVGIYNLVSWYQQHPGKAPKLMIYDVSNRPSGVSSRFSGSNSGNTATLTISGLQAEDEADYYCSAHAGDNTQFGGGTKLTVLS
notes: also called 15 scFv-Fc
B13: 10 (Fc fusion)
scFv-Fc chain: QVQLVQSGAEVKKPGSSVKVSCKASGYTFSGYSTHWLRQVPGQGLEWIGWDNPSSGDTTYAENFRGRVTLTRDTSITTDYLEVRGLRSDDTAVYYCARGGDDYSFDHWGQGTLVTVSSSGGGSGGGGSGGGGSQTVVTQEPSFSVSPGGTITLTCGLSSGSVFTSYYPSWYQQTPGQAPRTLIYSTNTRSSGVPDRFSGSILGNKAALTITGAQADDESDYYCVLYMGSGIGVFGTGTKVTVLG
notes: also called scFv-Fc 10; 10 scFv-Fc
B14: scFv 79 (scFv)
scFv: MAQVQLVQSGAEVKKPGSSVKVSCKASGGTFSSYAISWVRQAPGQGLEWMGWMNSNTGDTGYAQKFQGRVTMTRNTSTSTAYMELSSLRSEDTAVYYCAKISNYHYYAMDVWGQGTLVTVSSGGGGSGGGGSGGGGSLPVLTQPPSASGTSGQTVTISCSGGSSNIGSHLVTWYQQFPGTAPKVLIHTNDQRPSGVPDRISGSKSGTSASLAISGLQSDDEGDYYCAAWDDSLNGYVFGTGTKVTVLGQPKATPSAAAEQKLISEEDL
notes: also called 79 scFv; antibody 79
B15: scFv 84 (scFv)
scFv: MAQVQLVQSGAEVKKPGASVKVSCKASGYTFSGYSTHWLRQVPGQGLEWIGWDNPSSGDTTYAENFRGRVTLTRDTSITTDYLEVRGLRSDDTAVYYCARGGDDYSFDHWGQGTLVTVSSGGGGSGGGGSGGGGSQSVLTQPPSVSVAPGKTARIPCGGNNSGTKSVHWYQQKPGQAPVLVIYDDRVRPSGIPERFSGSNSGDTATLTISRVAAGDEADYYCQVSDGSGDPPTWVFGGGTRLTVLGQPKAAPSAAAEQKLISEEDL
notes: also called 84 scFv; antibody 84

Key:
[1] = target: West Nile virus E protein on WNV strain 2741 virions (West Nile virus, UniProt Q9Q6P4 291-791); assay: cell-based or functional assay
[2] = target: T1, WNV E protein DIII displayed on yeast; assay: flow cytometry on yeast displaying WNV E DIII (pYD1); % positive cells
[3] = target: T2, Recombinant WNV-E protein ectodomain; assay: SPR (Biacore); scFv-Fc captured by goat anti-human IgG on CM4 chip, rWNV-E in solution
[4] = target: T2, Recombinant WNV-E protein ectodomain; assay: SPR (Biacore 3000); scFv on NTA chip via His tag, rWNV-E in solution
[5] = target: T2, Recombinant WNV-E protein ectodomain

Sequence of West Nile virus E protein on WNV strain 2741 virions (Q9Q6P4 291-791 limits assumed): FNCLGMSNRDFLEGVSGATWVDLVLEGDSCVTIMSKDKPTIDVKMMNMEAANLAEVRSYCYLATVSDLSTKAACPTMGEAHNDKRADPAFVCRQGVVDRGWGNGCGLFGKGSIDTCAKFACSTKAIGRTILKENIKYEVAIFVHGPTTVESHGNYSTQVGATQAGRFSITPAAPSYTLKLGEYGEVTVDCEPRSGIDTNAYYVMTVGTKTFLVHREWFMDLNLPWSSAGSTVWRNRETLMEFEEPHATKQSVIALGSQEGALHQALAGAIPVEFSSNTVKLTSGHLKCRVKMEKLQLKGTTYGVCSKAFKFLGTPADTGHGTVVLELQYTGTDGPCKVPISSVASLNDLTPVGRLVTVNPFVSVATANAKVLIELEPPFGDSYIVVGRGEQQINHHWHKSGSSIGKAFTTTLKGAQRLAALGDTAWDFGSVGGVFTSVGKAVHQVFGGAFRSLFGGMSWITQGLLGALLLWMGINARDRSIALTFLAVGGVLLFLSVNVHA

| Binder | PRNT80 titer (µg/ml), plaque reduction neutralization of WNV on Vero cells [1] [µg/mL] | binding result [2] | Ka [4] [M⁻¹] | Kd [4] [nM] | koff [4] [s⁻¹] | kon [4] [M⁻¹ s⁻¹] | other results |
| --- | --- | --- | --- | --- | --- | --- | --- |
| B1 | 1.25 | no binding |  |  |  |  |  |
| B2 | 5 | no binding |  |  |  |  | Ka [3]: 7.34e+10 M⁻¹; Kd [3]: 0.0136 nM; koff [3]: 3.58e-07 s⁻¹; kon [3]: 26200 M⁻¹ s⁻¹ |
| B3 |  |  | 7.45e+08 | 1.34 | 0.00673 | 5.01e+06 |  |
| B4 |  |  | 1.69e+07 | 59.2 |  |  |  |
| B5 | 12.5 | no binding |  |  |  |  |  |
| B6 |  |  | 3.64e+07 | 27.5 | 0.00258 | 93900 |  |
| B7 |  |  | 2.3e+08 | 4.35 | 0.00225 | 517000 |  |
| B8 |  |  | 1.04e+08 | 9.65 | 0.00128 | 133000 | EC50 (read off the curve) [5]: ~0.3 µg/mL |
| B9 | 2.5 | no binding |  |  |  |  |  |
| B10 | 1.25 | no binding |  |  |  |  |  |
| B11 |  |  | 2.03e+08 | 4.92 | 0.00161 | 326000 |  |
| B12 | 1.25 | no binding |  |  |  |  |  |
| B13 |  | no binding |  |  |  |  |  |
| B14 |  |  | 1.87e+08 | 5.35 | 0.00067 | 125000 | EC50 (read off the curve) [5]: ~0.4 µg/mL |
| B15 |  |  | 2.65e+07 | 37.8 | 0.00685 | 181000 |  |
